Here are results for 5 molecules from patent EP4628506A1, “PREPARATION METHOD FOR AND USE OF CD70-SPECIFIC INTEGRATED DIAGNOSIS AND TREATMENT MOLECULAR IMAGING PROBE” (Renji Hospital, Shanghai Jiao Tong University School of …, priority 2022, dated 2024).

The target in series [1] is T1, extracellular domain of human recombinant CD70 (human, UniProt P32970 39-193).
T1 construct: extracellular domain; Immobilised on Biacore chips; also called human CD70; CD27 ligand
T1 sequence (looked up): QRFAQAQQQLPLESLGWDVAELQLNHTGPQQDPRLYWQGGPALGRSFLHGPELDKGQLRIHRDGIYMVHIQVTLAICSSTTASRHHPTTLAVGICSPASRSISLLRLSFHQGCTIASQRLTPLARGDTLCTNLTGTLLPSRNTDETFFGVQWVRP
Description: SPR (Biacore), CD70 extracellular domain immobilised, nanobody as mobile phase.

Series [2] addresses T1, extracellular domain of human …. Description: SPR (Biacore), CD70 extracellular domain immobilised, fusion protein as mobile phase.
The target of series [3] is T2, recombinant human serum albumin (human, UniProt P02768 25-609).
T2 construct: Immobilised on Biacore chips
The series can be described thus: SPR (Biacore), recombinant human serum albumin immobilised, fusion protein as mobile phase. For orientation: SPR reads the build-up and loss of mass on a sensor chip optically.

Series [4] concerns the target T3, recombinant murine serum albumin (murine, UniProt P07724 25-608).
T3 construct: Immobilised on Biacore chips
Description: SPR (Biacore), recombinant murine serum albumin immobilised, fusion protein as mobile phase.

A further series relates to RCC models (No. 62 PDX). Also on record: species or system mice. The following applies: mouse, in vivo. An excerpt:
Renal cell carcinoma (RCC) patient-derived xenograft (PDX) models, No. 62 PDX, positive in expression of CD70 were identified by immunohistochemical (IHC) staining using an antihuman CD70 monoclonal antibody (E3Q1A, 69209, Cell Signaling Technology) as a primary antibody, as shown in FIG. 3. RCC PDX models were established by subcutaneously inoculating 2mm×2mm×2mm No. 62 PDX tissue chunks into right shoulder of NCG (NOD-Prkdcem26Cd52Il2rgem26Cd22/Nju) mice.
PET/CT images of small animals involved in these tests were all captured using an IRIS small-animal PET/CT scanner (Inviscan Imaging Systems). Each murine model (three in each group) was injected with 3.7-7.4 MBq of [^68Ga]Ga-NOTA-B3 or [^68Ga]Ga-NOTA-B6 via the tail vein. One hour after the injection, the mice were anesthetized with isoflurane mixed in oxygen (at a concentration of 2%). After being deeply anesthetized, the mice were placed supine on the PET/CT scanning bed, and PET and CT images were captured sequentially. […]
The same operations as in step 2) above were performed. […] ROI uptake in the tumor and major tissues and organs (heart, liver, lungs, kidneys, muscles, spleen and bones) was analyzed and plotted against time. […]

T2 sequence (P02768 25-609 limits assumed): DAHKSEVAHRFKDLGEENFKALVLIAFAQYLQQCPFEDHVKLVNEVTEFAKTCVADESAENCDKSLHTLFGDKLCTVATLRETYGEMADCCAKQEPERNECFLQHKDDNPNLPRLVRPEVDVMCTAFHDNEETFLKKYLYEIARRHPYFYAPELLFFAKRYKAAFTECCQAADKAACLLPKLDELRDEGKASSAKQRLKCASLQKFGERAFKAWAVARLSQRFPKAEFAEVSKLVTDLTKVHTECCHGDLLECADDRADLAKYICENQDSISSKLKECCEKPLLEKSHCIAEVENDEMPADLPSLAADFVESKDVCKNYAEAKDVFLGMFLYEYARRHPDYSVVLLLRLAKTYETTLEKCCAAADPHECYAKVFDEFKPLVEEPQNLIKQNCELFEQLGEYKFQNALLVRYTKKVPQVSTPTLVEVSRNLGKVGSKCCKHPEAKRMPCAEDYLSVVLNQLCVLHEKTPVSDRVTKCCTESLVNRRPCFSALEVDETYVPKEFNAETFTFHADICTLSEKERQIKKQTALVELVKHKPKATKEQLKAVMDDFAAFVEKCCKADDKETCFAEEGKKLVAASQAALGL

B1: CD70-specific nanobody B6 (VHH)
VHH: QVQLQESGGGSVQAGGSLRLSCVASDLIVNDGCMAWFRQVPGKEHEGVARIAIPTTPGSTLYADSVKGRFTISRDGAKNTLYLQMNSLKPEDTAVYYCAADQWASRGCTAIATIPAEFDYWGQGTQVTVSS
notes: Monovalent nanobody expressed in E. coli from pET-30a(+); any vector-derived tag is not described
Turning to B1, the Kd in series [1] worked out at 3730 pM.

B2: CD70-specific nanobody fusion protein ABDB3 (other)
chain: HHHHHHQVQLQESGGGSVQAGGSLRLSCAASGIIVNDGCMAWFRQVPGKEREGVAGIVIGEYGGGTTYYADSVKGRFTISRDRAKNTLYLQMNSLKPEDTAMYYCAADQWASGGCTSIATFSDEFDYWGQGTQVTVSSGGGGSGGGGSGGGGSLAEAKVLANRELDKYGVSDFYKRLINKAKTVEGVEALKLHILAALPGGGGSLLQS
notes: 5
For the molecule B2, the Kd is 110 pM in series [2], 74.2 pM in series [3] and 380 pM in series [4].

B3: CD70-specific nanobody fusion protein ABDB6 (other)
chain: HHHHHHQVQLQESGGGSVQAGGSLRLSCVASDLIVNDGCMAWFRQVPGKEHEGVARIAIPTTPGSTLYADSVKGRFTISRDGAKNTLYLQMNSLKPEDTAVYYCAADQWASRGCTAIATIPAEFDYWGQGTQVTVSSGGGGSGGGGSGGGGSLAEAKVLANRELDKYGVSDFYKRLINKAKTVEGVEALKLHILAALPGGGGSLLQS
notes: 7
Consider B3, for which the values for the Kd in series [2], in series [3] and in series [4] were 135 pM, 88.5 pM and 454 pM, respectively.

B4: CD70-specific nanobody B3 (VHH)
VHH: QVQLQESGGGSVQAGGSLRLSCAASGIIVNDGCMAWFRQVPGKEREGVAGIVIGEYGGGTTYYADSVKGRFTISRDRAKNTLYLQMNSLKPEDTAMYYCAADQWASGGCTSIATFSDEFDYWGQGTQVTVSS
notes: as for B1
For the molecule B4, in series [1], the Kd was found to be 5690 pM.

B5: [^68Ga]Ga-NOTA-B6: human CD70-specific 68Ga-labeled monovalent nanobody probe, B6 modified with p-SCN-Bn-NOTA (conjugate)
VHH: QVQLQESGGGSVQAGGSLRLSCVASDLIVNDGCMAWFRQVPGKEHEGVARIAIPTTPGSTLYADSVKGRFTISRDGAKNTLYLQMNSLKPEDTAVYYCAADQWASRGCTAIATIPAEFDYWGQGTQVTVSSGGGGSGGGGSLLQSHHHHHH
Regarding B5, in the series on RCC models (No. 62 PDX), the “uptake in the major excretory (kidneys) and metabolic (liver) organs” value was “high nonspecific uptake”.

Usually Kd stands for the constant that tells how readily two partners part at equilibrium.
